# Measurements from IntAct's records for PubMed 12128212.
# B1: Protein daughter of sevenless (Drosophila melanogaster (Fruit fly)), Q9VZZ9 (parent)
# chain: MDRTFYEGWLIKSPPTKRIWRARWRRRYFTLKQGEIPEQFCLEYYTDHNCRKLKGVIDLDQCEQVDCGLRLENRKQKFQYMFDIKTPKRTYYLAAETEADMRDWVNCICQVCHLHDTKQSNELPLGAVGADENRTQHTSSSGGLSNSTQNTTTTSLHSSAGTTAPQASVPNAGGSAQLRRPAVIEEQPMPSNAGNNNSDSVYVNTEYSNRETMLCDANFDQQELLSAAQQQPPPSPATALYLNHSALIQAQAAAAAAEQLQQQQQQAARLAVSANGVVRKLPEHLVLTQQTLAEAAAQQHSSVQASPALSTASGPYIPISECFSGSPRFLPGVPLPGADLAIPNNPTTPLNNLDPKFYDTPRSHNNIGLNLTNDQSYSPKITNLSLQQLANNNASKQRSDSDSESVFTDDDEWAHPLPLRENVDRSTRPSDSSIENESFVLTYSQRFSKMPEEGGAIVPPAEKSSKLAGAASLPEAGDQGTLDKLAKVLKNKNNLILDFKENEKIPRDLPQLSDTENTSPAIVARRNAHSAFIEESYDIPRSHQQPYYNVNQLLGERPVTSPHNSNPIAASTPNLMAADLGAVAAISAAANPGLMGEAQAVASSPTSARTLPRHCYTNAAPTKMEGNVFRYDFMEQADCPPVNRKLKPKVAGGLPVVEDKPPEEFPAKPPVGVDQLTNKLGAAQLQQPIGPPSVDRKCKPNAYKLGNSATMSPATRRSSGAPLSMVLPHETDVHSPAAANAFFHETRTLPRQQHRHHPNSPGSMSVQHQRTASAAAAMMSLTAAAAPKQQAAAQTEHKLQYFDLDVTNKPPLLNRSSMSVGNLYSQGGNGASGMRFAGVEAGGARAPVPSSVVYRSVDFVKTEAFKRIREERESSGNK
# Variants of: B1
# Details: with grap_drome drk
row,effect of a mutation on the interaction,Variant
1,decreasing interaction strength,R696K
2,decreasing interaction strength,R644K
3,disrupting interaction strength,R644K;R696K

# Variants of: B1
# Details: with grap_drome drk
# Remark: another data set of the same source
row,effect of a mutation on the interaction,Variant
1,disrupting interaction strength,R644K;R696K
